Measured values as given in PMC5497811 (Nature, 2017).

B1: BT1763 (SusC-like), full-length, in freshly purified BT1762-1763 complex (natural protein, Bacteroides thetaiotaomicron, UniProt Q8A6W3 26-1041, looked up)
chain: GQNITVKGNVTSKTDGQPIIGASVVETTATTNGTITDFDGNFTLSVPVNSTLKITYIGYKPVTVKAAAIVNVLLEEDTQMVDEVVVTGYTTQRKADLTGAVSVVKVDEIQKQGENNPVKALQGRVPGMNITADGNPSGSATVRIRGIGTLNNNDPLYIIDGVPTKAGMHELNGNDIESIQVLKDAASASIYGSRAANGVIIITTKQGKKGQIKINFDASVSASMYQSKMNVLNTEQYGRAMWQAYVNDGENPNGNALGYAYNWGYNADGNPVLYGMTLSKYLDSKNTMPVADTDWFDEITRTGVIQQYNLSVSNGSEKGSSFFSLGYYKNLGVIKDTDFDRFSARMNSDYKLIDDILTIGQHFTLNRTSEVQAPGGIIETALDIPSAIPVYASDGSWGGPVGGWPDRRNPRAVLEYNKDNRYTYWRMFGDAYVNLTPFKGFNLRSTFGLDYANKQARYFTYPYQEGTQTNNGKSAVEAKQEHWTKWMWNAIATYQLEVGKHRGDVMIGMELNREDDSHFSGYKEDFSILTPDYMWPDAGSGTAQAYGAGEGYSLVSFFGKMNYSYADRYLLSLTLRRDGSSRFGKNHRYATFPSVSLGWRITQENFMKELTWLDDLKLRASWGQTGNQEISNLARYTIYAPNYGTTDSFGGQSYGTAYDITGSNGGGVLPSGFKRNQIGNDNIKWETTTQTNVGIDFSLFKQSLYGSLEYYYKKATDILTEMAGVGVLGEGGSRWINSGAMKNQGFEFNLGYRNKTAFGLTYDLNGNISTYRNEILELPETVAANGKFGGNGVKSVVGHTYGAQVGYIADGIFKSQDEVDNHATQEGAAVGRIRYRDIDHNGVIDERDQNWIYDPTPSFSYGLNIYLEYKNFDLTMFWQGVQGVDIISDVKKKSDFWSASNVGFLNKGTRLLNAWSPTNPNSDIPALTRSDTNNEQRVSTYFVENGSFLKLRNIQLGYTVPAVISKKMRMDRLRFYCSAQNLLTIKSKNFTGEDPENPNFSYPIPVNITFGLNIGF
B2: BT1762 (SusD-like) with C-terminal 4xAla linker and 6xHis-tag, native from B. theta (natural protein, Bacteroides thetaiotaomicron, UniProt Q8A6W4 19-570, looked up)
chain: CDDFLDRQVPQGIVTGDQIASPEYVDNLVISAYAIWATGDDINSSFSLWNYDVRSDDCYKGGSGTEDGGVFNALEISKGINTTDWNINDIWKRLYQCITRANTALQSLDQMDEKTYPLKNQRIAEMRFLRGHAHFMLKQLFKKIVIVNDENMEPDAYNELSNTTYTNDEQWQKIADDFQFAYDNLPEVQIEKGRPAQAAAAAYLAKTYLYKAYRQDGADNALTGINEEDLKQVVKYTDPLIMAKGGYGLETDYSMNFLPQYENGAESVWAIQYSINDGTYNGNLNWGMGLTTPQILGCCDFHKPSQNLVNAFKTDSQGKPLFSTYDNENYEVATDNVDPRLFHTVGMPGFPYKYNEGYIIQKNDDWSRSKGLYGYYVSLKENVDPDCDCLKKGSYWASSLNHIVIRYADVLLMRAEALIQLNDGRITDAISLINEVRSRAAGSTMLIFNYKEDYGVNFKVTPYDLKAYAQDEAMKMLKWERRVEFGMESSRFFDLVRWGEAKDVINAYYVTEASRCSIYKNAGFTENKNEYLPVPFEQISASNGNYTQNFGW

Assays:
[1] = target: BT2264 (SusC-like TonB-dependent transporter) (Bacteroides thetaiotaomicron); assay: crystal structure
native MS = target: the molecule itself; assay: native MS
[2] = target: B1; assay: SDS-PAGE of non-boiled samples

## BT2264 (SusC-like TonB-dependent transporter) (natural protein)
[1]
  stoichiometry N: 2

## B1
Native MS
  stoichiometry N: 2

## B2
[2]
  binding result: binds
